Experimental data as given in article PMC7321154, “Pharmacokinetic Properties of ^68Ga-labelled Folic Acid Conjugates: Improvement Using HEHE Tag” (Molecules, 2020).
Numbered stars: 1 amine (or outer) side, 2 acyl side, 3 side chain; on linkers, the order of the positions; unused ones are H or OH. Peptide text beside a SMILES is read from it. * marks the point of attachment. NODAGA = O=C(O)CN1CCN(CC(=O)O)CCN(C(CCC(=O)*)C(=O)O)CC1; Pteroyl = Nc1nc2ncc(CNc3ccc(C(=O)*)cc3)nc2c(=O)[nH]1; γGlu = O=C(O)[C@H](CCC(=O)[*:2])N[*:1]

Legend:
[1] = in vivo; parameters: species or system Wistar rats; conditions: Wistar, rat, iv, total radioactivity
Protocol: Normal biodistribution studies were carried out in healthy Wistar rats. Animals were grouped (N = 5/group) and injected with 10−12 MBq/100 μL of each ^68Ga-NODAGA-folate conjugate into the tail vein. Nonspecific uptake in FR-positive organs (e.g., kidneys) was determined by 5 min of folic acid pre-injection (36 μM, 100 μL) in PBS pH 7.4. At preselected time points of (30, 60, 90, 120 min for rats and 30, 60 min for mice) animals were sacrificed. The organs of interest were collected, blotted dry, weighed, and counted using a WIZARD^2 automatic γ-counter (PerkinElmer). The results are expressed as the percentage of injected activity dose per gram (% ID/g ± SD) for each organ/tissue.

[2] = in vitro; format: in vitro ADME; conditions: human, plasma
Protocol: The plasma stability of [^68Ga]Ga-FA-I and [^68Ga]Ga-FA-II was determined in human plasma in vitro.

[3] = in vivo; parameters: species or system BALB/c nude mice; conditions: female, BALB/c nude, mouse, iv, total radioactivity; for tissue to tissue ratio at 0.5 h / tissue to tissue ratio at 1 h: Differential uptake ratio (DUR)
Protocol: For the experimental tumor models athymic female BALB/c nude mice (4−5 weeks old, 18−20 g) were subcutaneously inoculated in the right flank with suspended 2 × 10^6 KB cells (150 μL, Opti-MEM (Gibco, Thermo Fisher Scientific, Waltham, MA, USA) and 50% Matrigel (Becton Dickinson, Franklin Lakes, NJ, USA). Tumors were allowed to grow for 12−16 days (tumor weight 500−900 mg). Animals were grouped (N = 3–5/group) and injected with 10−12 MBq/100 μL of each ^68Ga-NODAGA-folate conjugate into the tail vein. At preselected time points of (30, 60, 90, 120 min for rats and 30, 60 min for mice) animals were sacrificed. The organs of interest were collected, blotted dry, weighed, and counted using a WIZARD^2 automatic γ-counter (PerkinElmer). The results are expressed as the percentage of injected activity dose per gram (% ID/g ± SD) for each organ/tissue.

Compound: Nc1nc2ncc(CNc3ccc(C(=O)N[C@@H](CCC(=O)N[C@@H](CCCCNC(=O)CCC(C(=O)O)N4CCN(CC(=O)O)CCN(CC(=O)O)CC4)C(=O)N[C@@H](Cc4c[nH]cn4)C(=O)N[C@@H](CCC(=O)O)C(=O)N[C@@H](Cc4c[nH]cn4)C(=O)N[C@@H](CCC(=O)O)C(=O)O)C(=O)O)cc3)nc2c(=O)[nH]1 (stereo partly shown) [[^68Ga]Ga-FA-II, metal not drawn] ({Pteroyl-γGlu}-K(NODAGA)HEHE-OH)
- tissue uptake at 1 h [1]: 4.27 ± 0.93 %ID/g
- tissue uptake at 0.5 h ([1]; accumulation in blood): 0.28 ± 0.03 %ID/g
- tissue uptake at 1 h ([1]; accumulation in blood): 0.22 ± 0.06 %ID/g
- tissue uptake at 1.5 h ([1]; accumulation in blood): 0.09 ± 0.01 %ID/g
- tissue uptake at 2 h ([1]; accumulation in blood): 0.06 ± 0.02 %ID/g
- tissue uptake at 0.5 h ([1]; accumulation in brain): 0.04 ± 0.01 %ID/g
- tissue uptake at 1 h ([1]; accumulation in brain): 0.02 ± 0.01 %ID/g
- tissue uptake at 1.5 h ([1]; accumulation in brain): 0.02 ± 0.01 %ID/g
- tissue uptake at 2 h ([1]; accumulation in brain): 0.01 ± 0.01 %ID/g
- tissue uptake at 0.5 h ([1]; accumulation in heart): 0.27 ± 0.07 %ID/g
- tissue uptake at 1 h ([1]; accumulation in heart): 0.16 ± 0.08 %ID/g
- tissue uptake at 1.5 h ([1]; accumulation in heart): 0.1 ± 0.01 %ID/g
- tissue uptake at 2 h ([1]; accumulation in heart): 0.08 ± 0.01 %ID/g
- tissue uptake at 0.5 h ([1]; accumulation in kidneys): 4.03 ± 0.94 %ID/g
- tissue uptake at 1 h ([1]; accumulation in kidneys): 4.64 ± 1.8 %ID/g
- tissue uptake at 1.5 h ([1]; accumulation in kidneys): 4.42 ± 1.27 %ID/g
- tissue uptake at 2 h ([1]; accumulation in kidneys): 4.34 ± 0.18 %ID/g
- tissue uptake at 0.5 h ([1]; accumulation in liver): 0.18 ± 0.06 %ID/g
- tissue uptake at 1 h ([1]; accumulation in liver): 0.12 ± 0.06 %ID/g
- tissue uptake at 1.5 h ([1]; accumulation in liver): 0.07 ± 0.01 %ID/g
- tissue uptake at 2 h ([1]; accumulation in liver): 0.05 ± 0.01 %ID/g
- tissue uptake at 0.5 h ([1]; accumulation in lungs): 0.28 ± 0.06 %ID/g
- tissue uptake at 1 h ([1]; accumulation in lungs): 0.24 ± 0.07 %ID/g
- tissue uptake at 1.5 h ([1]; accumulation in lungs): 0.12 ± 0.02 %ID/g
- tissue uptake at 2 h ([1]; accumulation in lungs): 0.11 ± 0.02 %ID/g
- tissue uptake at 1 h ([1]; accumulation in muscle): 0.06 ± 0.01 %ID/g
- tissue uptake at 1.5 h ([1]; accumulation in muscle): 0.04 ± 0.01 %ID/g
- tissue uptake at 2 h ([1]; accumulation in muscle): 0.04 ± 0.01 %ID/g
- remaining at 3 h [2]: > 99%
- tissue to tissue ratio at 0.5 h ([3]; Tumor-to-blood): 1.6 ± 0.5
- tissue to tissue ratio at 1 h ([3]; Tumor-to-blood): 6.1 ± 2.5
- tissue to tissue ratio at 0.5 h ([3]; Tumor-to-kidneys): 0.39 ± 0.18
- tissue to tissue ratio at 1 h ([3]; Tumor-to-kidneys): 0.79 ± 0.28
- tissue to tissue ratio at 0.5 h ([3]; Tumor-to-muscle): 7.1 ± 2.8
- tissue to tissue ratio at 1 h ([3]; Tumor-to-muscle): 28.9 ± 13.7
- tissue uptake at 0.5 h ([3]; accumulation in bladder): 1.46 ± 0.53 %ID/g
- tissue uptake at 1 h ([3]; accumulation in bladder): 0.96 ± 0.46 %ID/g
- tissue uptake at 0.5 h ([3]; accumulation in brain): 0.09 ± 0.03 %ID/g
- tissue uptake at 1 h ([3]; accumulation in brain): 0.1 ± 0.03 %ID/g
- tissue uptake at 0.5 h ([3]; accumulation in intestines): 0.46 ± 0.15 %ID/g
- tissue uptake at 1 h ([3]; accumulation in intestines): 0.45 ± 0.13 %ID/g
- tissue uptake at 0.5 h ([3]; accumulation in kidneys): 4.47 ± 0.97 %ID/g
- tissue uptake at 1 h ([3]; accumulation in kidneys): 4.64 ± 0.26 %ID/g
- tissue uptake at 0.5 h ([3]; accumulation in liver): 0.51 ± 0.13 %ID/g
- tissue uptake at 1 h ([3]; accumulation in liver): 0.27 ± 0.08 %ID/g
- tissue uptake at 0.5 h ([3]; accumulation in muscle): 0.24 ± 0.04 %ID/g
